B1: 6-His GUS: E. coli β-glucuronidase with N-terminal 6×histidine tag (protein, UniProt P05804 1-603, looked up)
Beta-glucuronidase: MLRPVETPTREIKKLDGLWAFSLDRENCGIDQRWWESALQESRAIAVPGSFNDQFADADIRNYAGNVWYQREVFIPKGWAGQRIVLRFDAVTHYGKVWVNNQEVMEHQGGYTPFEADVTPYVIAGKSVRITVCVNNELNWQTIPPGMVITDENGKKKQSYFHDFFNYAGIHRSVMLYTTPNTWVDDITVVTHVAQDCNHASVDWQVVANGDVSVELRDADQQVVATGQGTSGTLQVVNPHLWQPGEGYLYELCVTAKSQTECDIYPLRVGIRSVAVKGEQFLINHKPFYFTGFGRHEDADLRGKGFDNVLMVHDHALMDWIGANSYRTSHYPYAEEMLDWADEHGIVVIDETAAVGFNLSLGIGFEAGNKPKELYSEEAVNGETQQAHLQAIKELIARDKNHPSVVMWSIANEPDTRPQGAREYFAPLAEATRKLDPTRPITCVNVMFCDAHTDTISDLFDVLCLNRYYGWYVQSGDLETAEKVLEKELLAWQEKLHQPIIITEYGVDTLAGLHSMYTDMWSEEYQCAWLDMYHRVFDRVSAVVGEQVWNFADFATSQGILRVGGNKKGIFTRDRKPKSAAFLLQKRWTGMNFGEKPQQGGKQ
modifications: His6 tag
B2: (Biotinylated 6-His) endostatin: mouse endostatin with N-terminal 6×histidine tag expressed in E. coli, biotinylated (protein, UniProt P39060 1572-1754, looked up)
Endostatin: HSHRDFQPVLHLVALNSPLSGGMRGIRGADFQCFQQARAVGLAGTFRAFLSSRLQDLYSIVRRADRAAVPIVNLKDELLFPSWEALFSGSEGPLKPGARIFSFDGKDVLRHPTWPQKSVWHGSDPNGRRLTESYCETWRTEAPSATGQASSLLGGRLLGQSAASCHHAYIVLCIENSFMTASK
modifications: Endostatin biotin label, His6 tag

Tests used:
[1] = GUS enzymatic activity (cleavage of substrate); type: biochemical
Source text: The 6-His GUS was pure based upon SDS-PAGE, where it ran as a single band of 75 kDa band. On gel filtration columns, the 6-His GUS runs as a tetramer of about 300 kDa.
The biological activity of each component of the 2C3-GUS conjugate was confirmed.

[2] = system: Bend3 mouse endothelial cells; ABAE, bovine aortic endothelial cells; HUVEC, human umbilical vein endothelial cells; assay: Direct binding of biotinylated 6-His endostatin to endothelial cells in vitro; type: cell-based; conditions: three endothelial cell types
Source text: Binding was detected using streptavidin-peroxidase in conjunction with O-phenylenediamine (OPD) and the absorbance read at 490 nm.

Molecule | Enzymatic activity of GUS [1] | Binding to endothelial cells in vitro [2]
B1 | enzymatically active | 
B2 |  | bound in a saturable fashion
